In experiment [1] the target is HALOGluA2(R) (GluA2(R) subunit with HALO domain inserted between signal peptide and N-terminal domain) (rat) (UniProt P19491). As to the kind of experiment: FRET or BRET.
In experiment [2] the target is HALOGluA3 (GluA3 subunit with HALO domain inserted between signal peptide and N-terminal domain) (rat) (UniProt P19492). As to the kind of experiment: FRET or BRET. (In BRET a luciferase serves as donor, and the signal depends on an acceptor being close.)
Sequence of HALOGluA3 (GluA3 subunit with HALO domain inserted between signal peptide and N-terminal domain) (rat) (P19492 23-888): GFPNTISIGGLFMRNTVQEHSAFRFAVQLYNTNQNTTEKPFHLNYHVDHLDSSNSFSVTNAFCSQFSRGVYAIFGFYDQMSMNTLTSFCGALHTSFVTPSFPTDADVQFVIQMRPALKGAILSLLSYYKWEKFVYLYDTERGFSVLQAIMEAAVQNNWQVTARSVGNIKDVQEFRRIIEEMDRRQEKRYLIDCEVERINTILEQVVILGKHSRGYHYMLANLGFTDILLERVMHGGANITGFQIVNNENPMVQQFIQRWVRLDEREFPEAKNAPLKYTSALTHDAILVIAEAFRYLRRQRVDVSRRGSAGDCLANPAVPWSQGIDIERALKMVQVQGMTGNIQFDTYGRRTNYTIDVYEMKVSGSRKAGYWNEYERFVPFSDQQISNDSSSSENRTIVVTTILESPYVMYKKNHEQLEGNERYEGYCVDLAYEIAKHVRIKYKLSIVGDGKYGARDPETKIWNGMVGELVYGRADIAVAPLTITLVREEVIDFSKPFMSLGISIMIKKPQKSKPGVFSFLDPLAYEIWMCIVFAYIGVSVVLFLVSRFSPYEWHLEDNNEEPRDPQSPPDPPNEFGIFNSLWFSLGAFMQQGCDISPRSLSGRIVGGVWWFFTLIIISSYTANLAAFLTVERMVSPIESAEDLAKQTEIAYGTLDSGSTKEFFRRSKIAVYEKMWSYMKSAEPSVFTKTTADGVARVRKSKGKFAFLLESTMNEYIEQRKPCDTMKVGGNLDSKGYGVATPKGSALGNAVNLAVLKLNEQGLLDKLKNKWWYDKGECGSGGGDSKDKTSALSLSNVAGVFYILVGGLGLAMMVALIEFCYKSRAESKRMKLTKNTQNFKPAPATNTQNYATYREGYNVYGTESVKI

Sequence of CFPGluA1 (GluA1 subunit with CFP inserted between signal peptide and N-terminal domain) (P19490 19-907): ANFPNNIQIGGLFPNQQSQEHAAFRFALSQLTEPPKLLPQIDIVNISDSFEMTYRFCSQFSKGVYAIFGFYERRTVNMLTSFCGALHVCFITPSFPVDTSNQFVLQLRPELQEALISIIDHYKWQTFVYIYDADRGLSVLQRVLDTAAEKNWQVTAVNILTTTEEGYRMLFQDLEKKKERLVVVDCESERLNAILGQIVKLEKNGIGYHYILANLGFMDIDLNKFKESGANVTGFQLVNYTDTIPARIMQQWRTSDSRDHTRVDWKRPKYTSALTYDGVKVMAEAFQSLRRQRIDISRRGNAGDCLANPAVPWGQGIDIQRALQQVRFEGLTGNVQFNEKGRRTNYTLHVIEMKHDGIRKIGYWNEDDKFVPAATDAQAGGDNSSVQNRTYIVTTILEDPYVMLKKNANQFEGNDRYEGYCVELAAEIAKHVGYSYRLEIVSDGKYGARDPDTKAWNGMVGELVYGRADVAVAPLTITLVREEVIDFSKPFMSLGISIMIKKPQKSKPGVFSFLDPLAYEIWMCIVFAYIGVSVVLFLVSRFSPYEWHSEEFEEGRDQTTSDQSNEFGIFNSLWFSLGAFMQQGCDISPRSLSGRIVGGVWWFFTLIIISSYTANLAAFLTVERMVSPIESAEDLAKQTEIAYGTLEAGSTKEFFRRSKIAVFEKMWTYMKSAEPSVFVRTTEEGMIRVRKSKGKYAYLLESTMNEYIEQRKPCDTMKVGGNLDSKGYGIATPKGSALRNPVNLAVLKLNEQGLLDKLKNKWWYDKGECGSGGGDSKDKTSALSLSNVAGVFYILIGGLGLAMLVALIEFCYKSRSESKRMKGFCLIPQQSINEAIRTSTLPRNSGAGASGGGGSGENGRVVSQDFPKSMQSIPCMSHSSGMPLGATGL
Sequence of CFPGluA2(R) (GluA2(R) subunit with CFP inserted between signal peptide and N-terminal domain) (P19491 22-883): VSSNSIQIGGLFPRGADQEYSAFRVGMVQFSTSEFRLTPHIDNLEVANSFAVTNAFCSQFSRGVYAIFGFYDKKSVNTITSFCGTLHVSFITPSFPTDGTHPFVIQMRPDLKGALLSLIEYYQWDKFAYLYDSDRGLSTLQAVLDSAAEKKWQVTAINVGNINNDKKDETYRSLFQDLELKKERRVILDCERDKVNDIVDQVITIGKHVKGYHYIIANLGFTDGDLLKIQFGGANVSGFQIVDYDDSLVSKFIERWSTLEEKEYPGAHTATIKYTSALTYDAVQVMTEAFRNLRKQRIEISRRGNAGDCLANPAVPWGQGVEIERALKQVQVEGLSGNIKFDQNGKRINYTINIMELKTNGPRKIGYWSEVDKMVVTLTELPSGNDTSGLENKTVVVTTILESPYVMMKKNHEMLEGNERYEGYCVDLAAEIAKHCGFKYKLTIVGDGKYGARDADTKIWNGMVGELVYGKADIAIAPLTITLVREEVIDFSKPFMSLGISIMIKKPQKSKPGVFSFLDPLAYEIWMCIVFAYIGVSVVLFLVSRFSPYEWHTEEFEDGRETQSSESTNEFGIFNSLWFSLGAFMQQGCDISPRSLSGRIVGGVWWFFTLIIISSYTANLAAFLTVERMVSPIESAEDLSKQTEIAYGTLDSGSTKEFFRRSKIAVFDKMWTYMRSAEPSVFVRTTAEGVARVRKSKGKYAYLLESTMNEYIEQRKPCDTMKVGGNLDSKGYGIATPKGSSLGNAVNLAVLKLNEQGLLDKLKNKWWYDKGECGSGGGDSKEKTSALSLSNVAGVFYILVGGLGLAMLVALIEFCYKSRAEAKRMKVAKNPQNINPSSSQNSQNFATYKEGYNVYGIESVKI
Sequence of HALOGluA2(R) (GluA2(R) subunit with HALO domain inserted between signal peptide and N-terminal domain) (rat) (P19491 22-883): as above

Consider “CFPGluA1 (GluA1 subunit with CFP inserted between signal peptide and N-terminal domain) (from UniProt P19490 19-907) (receptor)”, for which, in experiment [1], the CFP (donor) lifetime mean in the presence of the acceptor AF488 is 2.03 and the E FRET turned out to be 38.5%.
With “CFPGluA2(R) (GluA2(R) subunit with CFP inserted between signal peptide and N-terminal domain) (from UniProt P19491 22-883) (receptor)”, in experiment [2], the CFP (donor) lifetime mean in the presence of the acceptor AF488 is 2.51 and the E FRET was 27%.

The values are drawn from publication doi:10.64898/2025.12.17.694835.
